Results on 52 molecules are retold here after patent publication US7026443.

Assay [1] deals with HLA-A*0301 (human). The assay is described as follows: competition with 125I-labelled standard peptide for purified HLA-A*0301, gel filtration. The note with it: for relative binding ratio (A*0301): scale: ratio. (SEC sorts molecules by how far they enter the pores of the column.)
The target of assay [2] is HLA-A*0301 (human). The assay is described as follows: competition with 125I-labelled standard peptide for purified HLA, gel filtration.
A further assay concerns the target HLA-A*1101 (human). The description is as above.
Where [3] appears, read: remark: other sources report otherwise.

Like-named read-outs stand apart in the source and are kept apart here.

LILALLRYK (modifications not checked) [HPV18 E1 peptide … (position 281, 9 amino acids)]: the relative binding ratio (A*0301) with HLA-A*0301 (human) [1] stood at 0.27.
For the molecule CVYCKQQLLR (modifications not checked), the binding affinity ratio (IC50 of standard peptide / IC50 of test peptide) in the assay with HLA-A*0301 (human) [2] was found to be 0.0001; with HLA-A*1101 (human), 0.0005.
On to AGHYRGQCH (modifications not checked) [HPV18 E6 peptide … (position 131, 9 amino acids)], for which the relative binding ratio (IC50 of standard peptide / IC50 of test peptide) (ratio to standard peptide) in the assay with HLA-A*0301 (human) [1] came out at 0.0005.
AVCDKCLKFY (modifications not checked): the binding affinity ratio (IC50 of the standard peptide / IC50 of the test peptide) with HLA-A*0301 (human) [1] is 0.0052.
Consider DSIPHAACH (modifications not checked) [HPV18 E6 peptide … (position 58, 9 amino acids)], for which, in the assay with HLA-A*0301 (human) [1], the relative binding ratio (IC50 of standard peptide / IC50 of test peptide) (ratio to standard peptide) turned out to be 0.0005.
Still for that read-out and setting: the figure for VCDKCLKFY (modifications not checked) [… (HPV16 E6, position 69)] is 0.0002.
As for KLRAGQNHR (modifications not checked) [HPV18 E1 peptide … (position 647, 9 amino acids)], the relative binding ratio (A*0301) with HLA-A*0301 (human) [1] amounted to 0.3.
TGRCMSCCR (modifications not checked) [… (HPV16 E6, position 140)]: in the assay with HLA-A*0301 (human) [1], the relative binding ratio (IC50 of standard peptide / IC50 of test peptide) (ratio to standard peptide) was 0.0003.
As to GTTLEQQYNK (modifications not checked), the binding affinity ratio (IC50 of standard peptide / IC50 of test peptide) with HLA-A*0301 (human) [2] worked out at 0.0002; with HLA-A*1101 (human) it was 0.07.
As to WTGRCMSCCR (modifications not checked) [… (HPV16 E6, position 139)], the relative binding ratio (IC50 of standard peptide / IC50 of test peptide) (ratio to standard peptide) with HLA-A*0301 (human) [1] was 0.0003.
Consider NIHPAKDNR (modifications not checked) [… (HPV18 E1, position 574, 9 amino acids)], for which, in the assay with HLA-A*0301 (human) [1], the binding affinity ratio (IC50 of standard peptide / IC50 of test peptide) is 0.0005.
For SCCRSSRTR (modifications not checked) [… (HPV16 E6, position 145)], the relative binding ratio (IC50 of standard peptide / IC50 of test peptide) (ratio to standard peptide) with HLA-A*0301 (human) [1] worked out at 0.0003.
For LTTNIHPAK (modifications not checked) [… (HPV18 E1, position 571, 9 amino acids)], the binding affinity ratio (IC50 of standard peptide / IC50 of test peptide) in the assay with HLA-A*0301 (human) [1] was 0.091.
As for HLDKKQRFH (modifications not checked) [… (HPV16 E6, position 125)], the relative binding ratio (IC50 of standard peptide / IC50 of test peptide) (ratio to standard peptide) with HLA-A*0301 (human) [1] (setting [3]) is 0.0009.
In the case of AVCDKCLKF (modifications not checked), the binding affinity ratio (IC50 of the standard peptide / IC50 of the test peptide) with HLA-A*0301 (human) [1] turned out to be 0.0002.
For IILECVYCK (modifications not checked), the figures for the binding affinity ratio (IC50 of standard peptide / IC50 of test peptide) with HLA-A*0301 (human) [2] and in the assay with HLA-A*1101 (human) were 0.0016 and 0.019, respectively.
Turning to IVYRDGNPY (modifications not checked) [… (HPV16 E6, position 59)], the relative binding ratio (IC50 of standard peptide / IC50 of test peptide) (ratio to standard peptide) with HLA-A*0301 (human) [1] (setting [3]) is 0.15.
For EGTGCNGWF (modifications not checked) [HPV31 E1 peptide … (position 10, 9 amino acids)], the binding affinity ratio (IC50 of standard peptide / IC50 of test peptide) (ratio relative to standard peptide) with HLA-A*0301 (human) [1] came out at 0.0008.
Turning to CCRSSRTRR (modifications not checked) [HPV16 E6 position 146 peptide …], in the assay with HLA-A*0301 (human) [1], the binding affinity ratio (IC50 of the standard peptide / IC50 of the test peptide) was determined as 0.0003.
On to AFRDLCIVY (modifications not checked) [HPV16 E6 position 53 peptide …], for which the binding affinity ratio (IC50 of the standard peptide / IC50 of the test peptide) in the assay with HLA-A*0301 (human) [1] was 0.0052.
Regarding AVCDKCLK (modifications not checked) [HPV16 E6 peptide AVCDKCLK], the values for the binding affinity ratio (IC50 of standard peptide / IC50 of test peptide) with HLA-A*0301 (human) [2] and with HLA-A*1101 (human) were 0.0053 and 0.011, respectively.
KLRHLNEKRR (modifications not checked) [HPV18 E6 peptide … (position 117, 10 amino acids)]: the relative binding ratio (IC50 of standard peptide / IC50 of test peptide) in the assay with HLA-A*1101 (human) came out at 0.0001.
Regarding RFEDPTRRPY (modifications not checked) [HPV18 E6 peptide … (position 3, 10 amino acids)], the relative binding ratio (IC50 of standard peptide / IC50 of test peptide) in the assay with HLA-A*0301 (human) [1] was 0.0002.
RLKAICIEK (modifications not checked) [HPV16 E1 109 …]: the binding affinity ratio (IC50 of standard peptide / IC50 of test peptide) with HLA-A*0301 (human) [1] is 0.084.
Regarding AMFQDPQER (modifications not checked) [HPV16 E6 position 7 peptide …], the binding affinity ratio (IC50 of the standard peptide / IC50 of the test peptide) in the assay with HLA-A*0301 (human) [1] (setting [3]) turned out to be 0.017.
On to TLLQQYCLYL (modifications not checked) [HPV16 E1 253 …], for which the relative binding ratio (IC50 of standard peptide / IC50 of test peptide) (ratio to standard peptide) with HLA-A*0201 (human) was 0.65.
As for DIILECVYCK (modifications not checked), the binding affinity ratio (IC50 of standard peptide / IC50 of test peptide) with HLA-A*0301 (human) [2] was 0.0065; with HLA-A*1101 (human), 0.021.
Take EGTGCNGWFY (modifications not checked) [HPV31 E1 peptide … (position 10, 10 amino acids)]: in the assay with HLA-A*0301 (human) [1], the binding affinity ratio (IC50 of standard peptide / IC50 of test peptide) (ratio relative to standard peptide) is 0.0005.
Turning to CMSCCRSSR (modifications not checked) [HPV16 E6 position 143 peptide …], in the assay with HLA-A*0301 (human) [1], the binding affinity ratio (IC50 of the standard peptide / IC50 of the test peptide) is 0.0033.
NIRGRWTGR (modifications not checked): the binding affinity ratio (IC50 of standard peptide / IC50 of test peptide) came out at 0.0014 with HLA-A*0301 (human) [2] and 0.0005 in the assay with HLA-A*1101 (human).
The like results for CVQSTHVDIR (modifications not checked) were, in that order, 0.0049 and 0.0001.
As for GDTPEWIQR (modifications not checked) [HPV18 E1 341 …], the binding affinity ratio (IC50 of standard peptide / IC50 of test peptide) with HLA-A*0301 (human) [1] amounted to 0.0008.
ELRHYSDSVY (modifications not checked) [HPV18 E6 peptide … (position 77, 10 amino acids)]: the relative binding ratio (IC50 of standard peptide / IC50 of test peptide) (ratio to standard peptide) with HLA-A*0301 (human) [1] stood at 0.0002.
With ISLNSGQKK (modifications not checked) [HPV18 E1 116 …], the binding affinity ratio (IC50 of standard peptide / IC50 of test peptide) in the assay with HLA-A*0301 (human) [1] is 0.0003.
Regarding AVCDKCLK (modifications not checked) [HPV16 E6 position 68 peptide AVCDKCLK], the binding affinity ratio (IC50 of the standard peptide / IC50 of the test peptide) with HLA-A*0301 (human) [1] was 0.0053.
For PLCPEEKQR (modifications not checked) [… (HPV16 E6, position 116)], the relative binding ratio (IC50 of standard peptide / IC50 of test peptide) (ratio to standard peptide) with HLA-A*0301 (human) [1] is 0.0002.
Regarding SVICFVNSK (modifications not checked) [HPV16 E1 497 …], the binding affinity ratio (IC50 of standard peptide / IC50 of test peptide) with HLA-A*0301 (human) [1] is 0.0005.
Same read-out and setting: the figure for GVLILALLR (modifications not checked) [HPV18 E1 279 …] is 0.0058.
Still for that read-out and setting: the figure for TAQEAKQHR (modifications not checked) [HPV16 E1 72 …] is 0.0005.
For PLCPEEKQR (modifications not checked), the binding affinity ratio (IC50 of standard peptide / IC50 of test peptide) with HLA-A*0301 (human) [2] was 0.0002; in the assay with HLA-A*1101 (human), 0.0005.
For GIVCPICSQK (modifications not checked), the binding affinity ratio (IC50 of standard peptide / IC50 of test peptide) with HLA-A*0301 (human) [2] (setting [3]) amounted to 0.0003; with HLA-A*1101 (human) (setting [3]), 0.067.
Regarding KSFLKGTPK (modifications not checked) [HPV18 E1 peptide … (position 468, 9 amino acids)], the relative binding ratio (A*0301) in the assay with HLA-A*0301 (human) [1] is 0.0003.
Take LLIRCINCQK (modifications not checked): the binding affinity ratio (IC50 of standard peptide / IC50 of test peptide) with HLA-A*0301 (human) [2] is 0.021; with HLA-A*1101 (human) it was 0.18.
NSGQKKAKR (modifications not checked) [… (HPV18 E1, position 119, 9 amino acids)]: the binding affinity ratio (IC50 of standard peptide / IC50 of test peptide) in the assay with HLA-A*0301 (human) [1] was determined as 0.0005.
Take SLMKFLQGSV (modifications not checked) [HPV16 E1 489 …]: in the assay with HLA-A*0201 (human), the relative binding ratio (IC50 of standard peptide / IC50 of test peptide) (ratio to standard peptide) turned out to be 0.025.
WTGRCMSCCR (modifications not checked): the values for the binding affinity ratio (IC50 of standard peptide / IC50 of test peptide) in the assay with HLA-A*0301 (human) [2] and with HLA-A*1101 (human) were 0.0003 and 0.0008, respectively.
On to EVYDFAFR (modifications not checked) [HPV16 E6 peptide EVYDFAFR], for which the binding affinity ratio (IC50 of standard peptide / IC50 of test peptide) with HLA-A*0301 (human) [2] was 0.0004; in the assay with HLA-A*1101 (human) it was 0.0025.
SLFGMSLMK (modifications not checked) [HPV16 E1 484 …]: in the assay with HLA-A*0301 (human) [1], the binding affinity ratio (IC50 of standard peptide / IC50 of test peptide) was found to be 0.72.
As to NIRGRWTGR (modifications not checked) [… (HPV16 E6, position 134)], the relative binding ratio (IC50 of standard peptide / IC50 of test peptide) (ratio to standard peptide) with HLA-A*0301 (human) [1] stood at 0.0014.
On to AMFQDPQER (modifications not checked), for which the binding affinity ratio (IC50 of standard peptide / IC50 of test peptide) turned out to be 0.017 with HLA-A*0301 (human) [2] (setting [3]) and 0.032 in the assay with HLA-A*1101 (human) (setting [3]).
On to LCPEEKQRH (modifications not checked) [… (HPV16 E6, position 117)], for which the relative binding ratio (IC50 of standard peptide / IC50 of test peptide) (ratio to standard peptide) with HLA-A*0301 (human) [1] was found to be 0.0003.
As for RARQERLQR (modifications not checked) [HPV18 E6 peptide … (position 144, 9 amino acids)], in the assay with HLA-A*1101 (human), the relative binding ratio (IC50 of standard peptide / IC50 of test peptide) worked out at 0.0002.
